Assay results published in the supplement of paper PMC10567573.

B1: IQUB (parent)
chain: EADYEDDSKIAFLMQLQDIQYLTE
B2: DUSP5 (parent)
chain: YSEYPECCVDVKPISQEKIESERA

Variants of: B1
Assay: protein stability index of a GFP-peptide fusion (GPS, HEK-293T) (PSI 1-6); higher = more stable
Settings: c terminus: a fixed tail appended
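Note: lentivirally expressed fusions sorted by FACS into six bins by GFP to DsRed ratio, PSI derived from sequencing read proportions per bin multiplied by bin number.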

Protein stability index, by site and new letter:
Q17: Y 2.51; W 2.02; V 2.67; I 1.76; L 2.68

Variants of: B2
Assay: as above
Settings: c terminus: a fixed tail appended

Protein stability index of substitutions, site by site:
V9: C 4.12; Y 4.04; A 4.26; I 4.35; W 3.39; M 3.77; R 2.94; K 4.53; Q 4.47; D 4.12; S 4.93; N 5.56; P 4.24; G 4.4; F 3.76; T 4.4; H 4.39; L 4.7; E 5.56
E3: T 4.67; L 4.24; D 5.39; H 4.49; P 4.56; I 4.17; R 4.17; N 4.62; F 4.66; Y 4.24; Q 4.36; S 3.95; M 4.7; C 3.53; A 4.55; K 4.53; G 4.27
C8: M 4.59; W 1.32; G 5.25; I 3.77; Y 2.15; L 4.07; V 4.35; H 5.2; S 4.66; K 4.87; D 4.84; E 4.85; P 5.6; T 5.41; Q 4.58; N 5.64; A 4.56; R 5.24
Y1: R 5.62; M 5; H 5.21; C 5.2; S 5.75; I 4.87; V 5.31; F 4.12; T 5.23; K 5.36; G 5.21; W 5.1; D 5.29; Q 5.33; L 5.5; P 4.94; N 5.6; E 5.86; A 5.74
Y4: A 5.66; L 5.71; V 5.67; P 5.53; E 5.93; M 4.6; H 5.02; K 5.62; I 5.75; D 5.67; F 4.06; Q 5.34; R 5.52; S 5.19; W 1.72; T 5.77; G 5.77
P5: A 4.47; W 1.21; H 3.39; I 3.96; M 3.98; C 4.34; T 4.85; D 5.42; Y 3.9; Q 5.33; V 4.45; N 5.38; S 4.73; F 3.18; K 5.16; L 4.28; R 3.48
S2: Q 4.29; Y 4.93; W 4.44; H 2.13; C 2.29; P 4.88; F 4.11; N 5.31; I 1.92; L 3.67; V 2.53; A 3.48; R 5.49; D 5.29; T 2.62; E 5.79; M 4.28; K 5.35; G 5.11
E6: D 4.55; M 1.63; V 2.37; W 3.98; P 2.4; G 3.36; K 1.38; A 2.63; H 2.47; S 2.9; R 1.83; Y 1.44; F 2.28; T 2.75; Q 2.67; N 3.74; C 2.6
C7: Y 2.02; A 4.16; D 4.89; G 5.38; M 3.81; V 3.95; L 3.75; S 5.47; P 5.4; F 2.28; I 3.37; H 4.17; E 5.76; K 4.6; Q 5.35; T 4.81; W 2.95; R 4.26; N 4.64
